Data as given in the Immune Epitope Database (IEDB).

Key:
HLA-B*40:02 = test: IEDB peptide-MHC binding, purified MHC/competitive/radioactivity; ≥ and ≤ were set here for values at or beyond the usual limits of such assays; details: source organism: Mammarenavirus guanaritoense
HLA-B*40:01 = test: as above; details: source organism: Mammarenavirus guanaritoense
HLA-B*45:01 = test: IEDB peptide-MHC binding, cellular MHC/competitive/fluorescence; ≥ and ≤ were set here for values at or beyond the usual limits of such assays; details: source organism: Mammarenavirus guanaritoense
HLA-B*44:03 = test: as above; details: source organism: Mammarenavirus guanaritoense
HLA-B*18:01 = test: as above; details: source organism: Mammarenavirus guanaritoense
HLA-B*44:02 = test: as above; details: source organism: Mammarenavirus guanaritoense
HLA-A*02:06 = test: IEDB peptide-MHC binding, purified MHC/competitive/radioactivity; ≥ and ≤ were set here for values at or beyond the usual limits of such assays; details: source organism: Vaccinia virus WR
HLA-A*29:02 = test: as above; details: source organism: Vaccinia virus WR
HLA-A*23:01 = test: as above; details: source organism: Vaccinia virus WR
HLA-A*26:01 = test: as above; details: source organism: Vaccinia virus WR
HLA-A*02:01 = test: as above; details: source organism: Vaccinia virus WR
HLA-A*02:03 = test: as above; details: source organism: Vaccinia virus WR
HLA-A*01:01 = test: as above; details: source organism: Vaccinia virus WR
HLA-A*02:02 = test: as above; details: source organism: Vaccinia virus WR
HLA-A*68:02 = test: as above; details: source organism: Vaccinia virus WR
HLA-A*30:02 = test: as above; details: source organism: Vaccinia virus WR
HLA-A*24:02 = test: IEDB peptide-MHC binding, cellular MHC/competitive/fluorescence; ≥ and ≤ were set here for values at or beyond the usual limits of such assays; details: source organism: Vaccinia virus WR
HLA-A*31:01 = test: IEDB peptide-MHC binding, purified MHC/competitive/radioactivity; ≥ and ≤ were set here for values at or beyond the usual limits of such assays; details: source organism: Mammarenavirus lassaense
HLA-A*33:01 = test: as above; details: source organism: Mammarenavirus lassaense
HLA-A*11:01 = test: as above; details: source organism: Mammarenavirus lassaense
HLA-A*68:01 = test: IEDB peptide-MHC binding, cellular MHC/competitive/fluorescence; ≥ and ≤ were set here for values at or beyond the usual limits of such assays; details: source organism: Mammarenavirus lassaense
HLA-B*27:05 = test: IEDB peptide-MHC binding, purified MHC/competitive/radioactivity; ≥ and ≤ were set here for values at or beyond the usual limits of such assays; details: source organism: Mammarenavirus choriomeningitidis

What does the source list for ADKNLIKCS?
IC50 (HLA-B*40:02): 102 nM; IC50 (HLA-B*40:01): 316 nM; IC50 (HLA-B*45:01): ≥ 70000 nM; IC50 (HLA-B*44:03): ≥ 70000 nM; IC50 (HLA-B*18:01): ≥ 70000 nM; IC50 (HLA-B*44:02): ≥ 70000 nM

For SQIFNIISYI, which IC50 (HLA-A*02:06) is on record?
Its IC50 is 23 nM.

What about the IC50 (HLA-A*29:02) of the same sequence?
The IC50 was 1150 nM.

And the IC50 (HLA-A*23:01)?
The IC50 was 2380 nM.

And the IC50 (HLA-A*26:01)?
The IC50 was 397 nM.

What about the IC50 (HLA-A*02:01) of the same sequence?
The IC50 was 111 nM.

And the IC50 (HLA-A*02:03)?
The IC50 was 181 nM.

What about the IC50 (HLA-A*01:01) of the same sequence?
Its IC50 is 801 nM.

And the IC50 (HLA-A*02:02)?
The IC50 was 62 nM.

What about the IC50 (HLA-A*68:02) of the same sequence?
The IC50 was 48 nM.

What about the IC50 (HLA-A*30:02) of the same sequence?
The IC50 was 671 nM.

What about the IC50 (HLA-A*24:02) of the same sequence?
The IC50 was 9510 nM.

For ALMSIISTFH, which IC50 (HLA-A*31:01) is on record?
Its IC50 is 3680 nM.

And the IC50 (HLA-A*33:01)?
The IC50 was 3610 nM.

What about the IC50 (HLA-A*11:01) of the same sequence?
The IC50 was 618 nM.

And the IC50 (HLA-A*68:01)?
The IC50 was 23800 nM.

For IIVLIIITSI, which IC50 (HLA-B*27:05) is on record?
Its IC50 is 1880 nM.
